This passage reports Kd results from PMC4897735, “Acousto-microfluidics for screening of ssDNA aptamer”.

This data set has as its target prostate-specific antigen (PSA) (UniProt P07288 25-261). The data set is described as follows: SPR; AS2 3-50 nM, 2 mM MgCl2; SPR (Biacore CM5): PBS pH 7.4, 2 mM MgCl2 (PBSM), 25 °C, 15 µl/min, blank flow cell reference. As to conditions: protein: commercial. For orientation: In SPR one partner is held on a chip, and binding of the other changes the refractive index at the surface.

Sequence of prostate-specific antigen (PSA) (P07288 25-261): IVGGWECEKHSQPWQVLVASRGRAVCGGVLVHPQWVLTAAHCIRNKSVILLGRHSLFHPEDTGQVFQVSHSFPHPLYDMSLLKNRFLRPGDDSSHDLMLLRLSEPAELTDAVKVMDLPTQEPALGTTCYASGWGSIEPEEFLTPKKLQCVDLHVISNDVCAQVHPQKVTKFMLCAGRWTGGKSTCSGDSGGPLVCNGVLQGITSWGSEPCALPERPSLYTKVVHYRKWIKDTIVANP

For orientation: Kd means a measure of binding affinity in units of concentration. A higher Kd goes with weaker binding. GGGCGGGGCGGACGAGACAGTAAGGGCTGTGGGTGTGGTG (ssDNA) [AS2] yielded a Kd of 0.7 nM.
